From patent US20250333496A1 (Novo Nordisk, published 2025) come the findings set out here.

Read-outs that look alike come from different tables or passages of the source.

Experiment [1] has as its target T1, human IL-6 (mature hIL-6) (human, UniProt P05231 30-212). As to the kind of experiment: cell-based or functional assay.
Experiment [2] has as its target T1, human IL-6 (mature hIL-6). The experiment is described as follows: cell-based or functional assay. The source holds these as a separate data set.
Experiment [3] has as its target T1, human IL-6 (mature hIL-6). The experiment is described as follows: cell-based or functional assay. The source holds these as a separate data set.
For experiment [4], the target named is T1, human IL-6 (mature hIL-6). The experiment is described as follows: SPR (format not stated).
Experiment [5] has as its target T1, human IL-6 (mature hIL-6). The experiment is described as follows: cell-based or functional assay. This is another data set of the same source.
Experiment [6] deals with T2, IL-6R on HEK293-STAT3-Luc reporter cells (UniProt P08887 20-468, limits assumed).
T2 sequence (looked up): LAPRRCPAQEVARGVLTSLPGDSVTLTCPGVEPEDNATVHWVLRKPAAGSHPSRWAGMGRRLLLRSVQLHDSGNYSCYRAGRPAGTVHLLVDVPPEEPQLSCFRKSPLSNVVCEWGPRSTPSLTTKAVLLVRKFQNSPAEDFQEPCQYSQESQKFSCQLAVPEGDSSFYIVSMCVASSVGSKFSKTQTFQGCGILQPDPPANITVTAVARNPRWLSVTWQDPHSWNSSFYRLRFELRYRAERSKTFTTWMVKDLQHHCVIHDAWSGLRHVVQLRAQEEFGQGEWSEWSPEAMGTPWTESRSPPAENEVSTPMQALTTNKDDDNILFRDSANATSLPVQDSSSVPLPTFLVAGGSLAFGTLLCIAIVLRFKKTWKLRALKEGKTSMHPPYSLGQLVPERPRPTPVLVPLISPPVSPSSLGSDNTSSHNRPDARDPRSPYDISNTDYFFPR
The experiment is described as follows: cell-based or functional assay.

The target of experiment [7] is T2, IL-6R on HEK293-STAT3-Luc reporter cells. The experiment is described as follows: cell-based or functional assay. The source holds these as a separate data set.
Experiment [8] deals with T3, recombinant human HPC4-tagged IL-6 (human, UniProt P05231 30-212).
T3 construct: captured on an anti-HPC4 antibody in SPR; also called HPC4-human IL6
As to the kind of experiment: SPR, HPC4-IL-6 captured on anti-HPC4 antibody, VHH injected, 25 C, 1:1 model. Here is the method: Binding of purified anti-IL-6 VHHs to recombinant human HPC4-tagged IL-6 (SEQ ID NO: 98) was probed by Surface Plasmon Resonance (SPR).
IL-6 was captured at a flow rate of 10 μL/min for 30 seconds.
Subsequently, concentration series of VHH polypeptides according to Table 33 were injected at a flow rate of 50 μL/min for 200 seconds to allow for binding to […] followed by 600 seconds running buffer (10 mM HEPES, 150 mM NaCl, 5 mM CaCl₂, 0.05% (v/v) Surfactant P20, 1 mg/mL bovine serum albumin, pH 7.4) injection allowing dissociation from IL-6. The running buffer was also used for dilution of anti-IL-6 VHHs and IL-6. Regeneration of the chip was achieved using a regeneration buffer consisting of 50 mM EDTA in running buffer without CaCl₂, 30 seconds contact time, and a 30 μL/min flow rate applied twice to the surface. The binding data were collected at 25° C. at either a Biacore instrument (Cytiva AB, Uppsala) or a Bruker SPR32 (Bruker Daltonics). Data were analysed according to a 1:1 model using either BiaEvaluation or Biacore Insight Evaluation (Cytiva AB, Uppsala) or Bruker Analyser (Bruker Daltonics).

For experiment [9], the target named is T1, human IL-6 (mature hIL-6). The experiment is described as follows: cell-based or functional assay. The source holds these as a separate data set.

T3 sequence (P05231 other isoform, or with tags, fused parts or gaps limits assumed): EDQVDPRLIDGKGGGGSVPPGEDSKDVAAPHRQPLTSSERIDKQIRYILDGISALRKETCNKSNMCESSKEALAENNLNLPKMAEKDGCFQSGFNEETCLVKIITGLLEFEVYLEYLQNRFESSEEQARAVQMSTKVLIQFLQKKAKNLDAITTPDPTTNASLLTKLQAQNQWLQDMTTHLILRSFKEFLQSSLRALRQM
T1 sequence (P05231 30-212): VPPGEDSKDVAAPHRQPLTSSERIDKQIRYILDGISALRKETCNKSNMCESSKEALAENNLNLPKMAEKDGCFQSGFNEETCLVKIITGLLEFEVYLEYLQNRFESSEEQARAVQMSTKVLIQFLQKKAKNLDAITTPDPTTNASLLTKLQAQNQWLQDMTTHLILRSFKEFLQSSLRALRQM

B1: Polypeptide_19 (VHH)
VHH: QLQLVESGGGWVQPGGSLKLSCTTSGRTFSSYAVGWFRQAPGKEREFVADIGENADNTWYAHSVKGRFTISRDNAKNTVYLQMNSLKPEDTAVYYCAADSYGVGGGAQGYYDSWGQGTQVTVSS
notes: VHH_1.11 with C-terminal His tag extension E1; also called [VHH_1.11]-E1
The Kd is the free concentration of one partner at which half of the binding sites on the other are occupied at equilibrium, for simple one-to-one binding. On to B1, for which, in [1], the “IC50 (nM), STAT3-luc reporter gene assay” value worked out at 0.185 nM and the “Relative IC50 to Reference Polypeptide_29” value amounted to 5.4 fold. Also, in [2], the “IC 50 (nM), reporter gene assay, 0% HSA” value was determined as 0.117 nM and the “IC 50 (nM), reporter gene assay, 1% HSA” value stood at 0.064 nM. Also, the “Reporter gene-assay [pM]” value in experiment [3] is 40.6 pM. The dissociation constant Kd in experiment [4] was 1 pM.

B2: Reference Anti-IL6 Fab (Fab, V domains shown)
VH: EVQLVESGGGLVQPGGSLRLSCAASGFTISSNYMIWVRQAPGKGLEWVSDLYYYAGDTYYADSVKGRFTMSRDISKNTVYLQMNSLRAEDTAVYYCARWADDHPPWIDLWGRGTLVTVSS
VL: DIQMTQSPSTLSASVGDRVTITCRASQGISSWLAWYQQKPGKAPKVLIYKASTLESGVPSRFSGSGSGTEFTLTISSLQPDDFATYYCQQSWLGGSFGQGTKLEIKR
Take B2: in experiment [2], the “IC 50 (nM), reporter gene assay, 0% HSA” value turned out to be 0.026 nM and the “IC 50 (nM), reporter gene assay, 1% HSA” value turned out to be 0.017 nM. Further, in [5], the “IC50 (nM), STAT3-luc reporter gene assay” value was 0.039 nM; the “Relative IC50 to Polypeptide_29” value was 0.9 fold; the “Relative IC50 to Reference Anti-IL6 Fab” value came out at 1 fold.

B3: Vobarilizumab anti-IL-6R domain SIA comparator (VHH)
VHH: EVQLVESGGGLVQPGGSLRLSCAASGSVFKINVMAWYRQAPGKGRELVAGIISGGSTSYADSVKGRFTISRDNAKNTLYLQMNSLRPEDTAVYYCAFITTESDYDLGRRYWGQGTLVTVSS
On to B3, for which the “IC 50 (nM), reporter gene assay, 0% HSA” value in [6] was 0.114 nM. In experiment [7], the “IC50 (nM), STAT3-luc reporter gene assay” value was determined as 0.114 nM; the “Relative IC50 to Polypeptide_29” value was 2.6 fold; the “Relative IC50 to Reference Anti-IL6 Fab” value came out at 2.9 fold.

B4: anti-IL-6 VHH building block 7G05 SIA comparator (VHH)
VHH: QVKLEESGGGLVQPGGSLRLSCAASGSISRFNIMGWYRQAPGKQRELVADITNGGTTMYADSVKGRFTISRDNTKNTVYLQMNSLKPEDTAVYYCHTYYPTTGFDDWGQGAQVTVSS
Turning to B4, in experiment [5], the “IC50 (nM), STAT3-luc reporter gene assay” value was 0.115 nM; the “Relative IC50 to Polypeptide_29” value turned out to be 2.6 fold; the “Relative IC50 to Reference Anti-IL6 Fab” value is 2.9 fold.

B5: Polypeptide_34 (VHH)
VHH: EVQLVESGGGLVQAGGSLRLSCTASGGTFSEYAMAWFRQAPGKEREFVTDIGESGGTWYADSVKGRFTISRDNAKNTVYLQMNSLRPEDTAVYYCAADSYGVGGGAERYYDSWGQGTQVTVSS
notes: VHH_1.8 with C-terminal His tag extension E1; also called [VHH_1.8]-E1
A word on the kon: it is the second-order rate constant of association. Take B5: in [2], the “IC 50 (nM), reporter gene assay, 0% HSA” value amounted to 0.066 nM and the “IC 50 (nM), reporter gene assay, 1% HSA” value was 0.046 nM. Moreover, the “Reporter gene-assay [pM]” value in [3] was determined as 43.6 pM. Moreover, the dissociation constant Kd in [4] was approximately 13.6 pM. In experiment [8], the Kd was 13.6 pM and the kon worked out at 2.88e+07 M⁻¹ s⁻¹.

B6: Polypeptide_29 (VHH)
VHH: EVQLVESGGGLVQPGGSLKLSCTTSGRRFSEYAVGWFRQAPGKEREFVADIGEQAENTWYAESVLGRFTISRDDAKNTVYLEMDGLKPEDTAVYYCAADKYGVGGNAQGYYDSWGQGTQVTVSS
notes: VHH_1.6 with C-terminal His tag extension E1; also called [VHH_1.6]-E1
One may read the koff as the rate constant with which the complex falls apart. B6: in experiment [1], the “IC50 (nM), STAT3-luc reporter gene assay” value is 0.034 nM and the “Relative IC50 to Reference Polypeptide_29” value came out at 1 fold. Also, the “IC 50 (nM), reporter gene assay, 0% HSA” value in experiment [2] amounted to 0.035 nM. Besides, in [9], the “IC50 (nM) mean, STAT3-luc reporter gene assay” value (“IC50 (nM) mean” below) turned out to be 0.039 nM and the “Relative IC50 to Polypeptide_29” value was 1 fold. In [8], the Kd is 3.9 pM, the koff came out at 8.69e-05 s⁻¹ and the on-rate constant (kon) was 2.23e+07 M⁻¹ s⁻¹. In addition, in [5], the “IC50 (nM), STAT3-luc reporter gene assay” value worked out at 0.044 nM; the “Relative IC50 to Polypeptide_29” value stood at 1 fold; the “Relative IC50 to Reference Anti-IL6 Fab” value turned out to be 1.1 fold.

B7: Compound 14 (VHH)
VHH: EVQLVESGGGLVQPGGSLKLSCTTSGRRFSEYAVGWFRQAPGKEREFVADIGEQAENTWYAESVLGRFTISRDDAKNTVYLEMDGLKPEDTAVYYCAADKYGVGGNAQGYYDSWGQGTQVTVSS
modifications: Chem. 24 (C16 fatty acid substituent) on Cys in position 4 of the extension (SEQ ID NO: 161)
As to B7, in [9], the “IC50 (nM) mean” value came to 0.041 nM and the “Relative IC50 to Polypeptide_29” value stood at 1.1 fold.

B8: Compound 18 (VHH)
VHH: EVQLVESGGGLVQPGGSLKLSCTTSGRRFSEYAVGWFRQAPGKEREFVADIGEQAENTWYAESVLGRFTISRDDAKNTVYLEMDGLKPEDTAVYYCAADKYGVGGNAQGYYDSWGQGTQVTVSS
modifications: Chem. 26 (C18 fatty acid substituent) on Cys in position 4 and on Cys in position 6 of the extension (SEQ ID NO: 162)
As to B8, in experiment [9], the “IC50 (nM) mean” value was found to be 0.043 nM and the “Relative IC50 to Polypeptide_29” value amounted to 1.2 fold.

B9: Compound 19 (VHH)
VHH: EVQLVESGGGLVQPGGSLKLSCTTSGRRFSEYAVGWFRQAPGKEREFVADIGEQAENTWYAESVLGRFTISRDDAKNTVYLEMDGLKPEDTAVYYCAADKYGVGGNAQGYYDSWGQGTQVTVSS
modifications: Chem. 27 (C20 fatty acid substituent) on Cys in position 4 and on Cys in position 6 of the extension (SEQ ID NO: 162)
For the molecule B9, in [9], the “IC50 (nM) mean” value stood at 0.042 nM and the “Relative IC50 to Polypeptide_29” value turned out to be 1.1 fold.

B10: Compound 16 (VHH)
VHH: EVQLVESGGGLVQPGGSLKLSCTTSGRRFSEYAVGWFRQAPGKEREFVADIGEQAENTWYAESVLGRFTISRDDAKNTVYLEMDGLKPEDTAVYYCAADKYGVGGNAQGYYDSWGQGTQVTVSS
modifications: Chem. 27 (C20 fatty acid substituent) on Cys in position 4 of the extension (SEQ ID NO: 161)
As to B10, in experiment [9], the “IC50 (nM) mean” value stood at 0.054 nM and the “Relative IC50 to Polypeptide_29” value was 1.6 fold.

B11: Compound 17 (VHH)
VHH: EVQLVESGGGLVQPGGSLKLSCTTSGRRFSEYAVGWFRQAPGKEREFVADIGEQAENTWYAESVLGRFTISRDDAKNTVYLEMDGLKPEDTAVYYCAADKYGVGGNAQGYYDSWGQGTQVTVSS
modifications: Chem. 24 (C16 fatty acid substituent) on Cys in position 4 and on Cys in position 6 of the extension (SEQ ID NO: 162)
Turning to B11, in experiment [9], the “IC50 (nM) mean” value was 0.04 nM and the “Relative IC50 to Polypeptide_29” value was found to be 1 fold.

B12: Compound 15 (VHH)
VHH: EVQLVESGGGLVQPGGSLKLSCTTSGRRFSEYAVGWFRQAPGKEREFVADIGEQAENTWYAESVLGRFTISRDDAKNTVYLEMDGLKPEDTAVYYCAADKYGVGGNAQGYYDSWGQGTQVTVSS
modifications: Chem. 26 (C18 fatty acid substituent) on Cys in position 4 of the extension (SEQ ID NO: 161)
With B12, in experiment [9], the “IC50 (nM) mean” value came out at 0.046 nM and the “Relative IC50 to Polypeptide_29” value was determined as 1.3 fold.
